B1: PHRF1 (RP): GST-tagged RING + PHD, 90-250 (protein)
chain: QGKLEAAGSFNSDDDAESCPICLNAFRDQAVGTPENCAHYFCLDCIVEWSKNANSCPVDRTLFKCICIRAQFGGKILRKIPVENTKASEEEEDPTFCEVCGRSDREDRLLLCDGCDAGYHMECLDPPLQEVPVDEWFCPECAAPGVVLAADAGPVSEEEVS
modifications: GST tag
B2: DPF2 (PPC2W2): GST-tagged Dual PHD + C2W2 finger, 190-391 (protein)
chain: VGSARKKLDASILEDRDKPYACDICGKRYKNRPGLSYHYAHSHLAEEEGEDKEDSQPPTPVSQRSEEQKSKKGPDGLALPNNYCDFCLGDSKINKKTGQPEELVSCSDCGRSGHPSCLQFTPVMMAAVKTYRWQCIECKCCNICGTSENDDQLLFCDDCDRGYHMYCLTPSMSEPPEGSWSCHLCLDLLKEKASIYQNQNSS
modifications: GST tag
B3: TRIM66 (PB): GST-tagged PHD + Bromo, 966-1216 (protein)
chain: APIENEDFCAVCLNGGELLCCDRCPKVFHLSCHVPALLSFPGGEWVCTLCRSLTQPEMEYDCENACYNQPGMRASPGLSMYDQKKCEKLVLSLCCNNLSLPFHEPVSPLARHYYQIIKRPMDLSIIRRKLQKKDPAHYTTPEEVVSDVRLMFWNCAKFNYPDSEVAEAGRCLEVFF
modifications: GST tag
B4: CHD4 (PPCC): GST-tagged Dual PHD + Dual Chromo, 350-710 (protein)
chain: KKKKKGEEEVTAVDGYETDHQDYCEVCQQGGEIILCDTCPRAYHMVCLDPDMEKAPEGKWSCPHCEKEGIQWEAKEDNSEGEEILEEVGGDLEEEDDHHMEFCRVCKDGGELLCCDTCPSSYHIHCLNPPLPEIPNGEWLCPRCTCPALKGKVQKILIWKWGQPPSPTPVPRPPDADPNTPSPKPLEGRPERQFFVKWQGMSYWHCSWVSELQLELHCQVMFRNYQRKNDMDEPPSGDFGGDEEKSRKRKNKDPKFAEMEERFYRYGIKPEWMMIHRILNHSVDKKGHVHYLIKWRDLPYDQASWESEDVEIQDYDLFKQSYWNHRELMRGEEGRPGKKLKKVKLRKLERPPETPTVDPTV
modifications: GST tag
B5: CHD5 (PPCC): GST-tagged Dual PHD + Dual Chromo, 330-670 (protein)
chain: KRIDDGDGYETDHQDYCEVCQQGGEIILCDTCPRAYHLVCLDPELEKAPEGKWSCPHCEKEGIQWEPKDDDDEEEEGGCEEEEDDHMEFCRVCKDGGELLCCDACPSSYHLHCLNPPLPEIPNGEWLCPRCTCPPLKGKVQRILHWRWTEPPAPFMVGLPGPDVEPSLPPPKPLEGIPEREFFVKWAGLSYWHCSWVKELQLELYHTVMYRNYQRKNDMDEPPPFDYGSGDEDGKSEKRKNKDPLYAKMEERFYRYGIKPEWMMIHRILNHSFDKKGDVHYLIKWKDLPYDQCTWEIDDIDIPYYDNLKQAYWGHRELMLGEDTRLPKRLLKKGKKLRDDK
modifications: GST tag

Assay: dCypher AlphaScreen Phase A, optimal reader concentration range
Format: binding
Conditions: 100 nM biotinylated peptide; 30 min + 60 min at 23 °C; AlphaLISA; n = 2
Description: Fig. 3 dCypher histone peptide-binding assays define the PTM recognition preference of PHD proteins with high sensitivity. a–h Binding curves to determine optimal reader protein concentration for full peptide library screening on the dCypher® AlphaScreen® platform (see “Methods”). X-axes are log(protein concentration (M)) at constant peptide concentration (100 nM); Y-axes are AlphaScreen counts, representing relative strength of binding (n = 2; error bars are S.D.). i Heat map represents relative binding to H3 N-terminal peptides (left) by PHD-containing GST-tagged proteins (top) using the dCypher AlphaScreen platform. Protein concentrations can be found in Additional file 5: Table S4. Binding strength is indicated by color gradient from green to yellow (stronger to weaker). The asterisk (*) by MLL5 signifies its general preference for H3K4 methylation. Alpha counts (n = 2) were normalized individually for each protein to the highest signal for each respective assay. For full dCypher peptide screen data, see Additional file 4: Table S3
We next employed a highly sensitive proximity-based AlphaScreen histone peptide assay (dCypher®) to provide a third and orthogonal approach to analyzing the histone binding preferences for a subset of the 31 PHD proteins with respect to various histone tail PTMs. In this assay, biotinylated peptides are bound to streptavidin “donor” beads and the GST-tagged reader domains bound to Glutathione “acceptor” beads. The donor beads are excited by 680 nm light, releasing a singlet oxygen which causes light emission (520–570 nm) in proximal acceptor beads (within 200 nm); emission intensity is then correlated to binding strength. […] Additionally, we examined several well characterized PHD–PTM interactors [DIDO1, KDM7A, and DPF2 (PPC2W2)] for positive controls and to provide a benchmark. Initial binding assays were conducted for each fusion protein using three peptides [H3 (1–20) with K4me0, H3K4me3 or H3K9me3] to determine the optimal reader domain concentration for full peptide library studies (Fig. 3a–h; Additional file 4: Table S3 and Additional file 5: Table S4). This is an important first step as signal often declined after query protein saturation (the ‘hook point’, caused by excess free query competing with bead bound).
The dCypher peptide screen assay was performed as previously described. Briefly, 5 μL of GST-tagged reader domains (optimal protein concentration for library screening determined by initial binding curves to candidate peptides) were incubated with 5 μL of 400 nM (100 nM Final) biotinylated histone peptides (EpiCypher) for 30 min at 23 °C in 1× AlphaLISA Epigenetics buffer + epigenetics buffer supplement (PerkinElmer, AL1008) in a 384-well plate. […] Plates were incubated at 23 °C in subdued lighting for 60 min and AlphaLISA signal measured on a PerkinElmer 2104 EnVision (680 nm laser excitation, 570 nm emission filter ± 50 nm bandwidth).
Supplementary file 13072_2020_328_MOESM4_ESM.xlsx: Additional file 4: Table S3. dCypher Results. Excel Tab Peptide Phase A is a compiled set of binding data: chromatin reader titration vs. several peptide targets. […] Excel Tab Peptide Phase B is a compiled set of binding data: chromatin reader at optimized concentrations vs. entire 293 peptide library. […]

| Molecule | Phase A Optimal Range (reader concentration) |
| --- | --- |
| B1 | 5 to 30 nM |
| B2 | 0.05 to 1 nM |
| B3 | 0.5 to 10 nM |
| B4 | 0.45 to 10 nM |
| B5 | 1 to 35 nM |
